By Kd is commonly meant the constant that tells how readily two partners part at equilibrium.

For assay [1], the target named is α/β importin complex labeled with Cy3 (UniProt Q14974). As to the kind of experiment: MST; Cy3-labeled β-importin in the α/β importin complex at constant concentration, MNT titrated; 20 mM HEPES, 110 mM KCl, 5 mM NaHCO3, 5 mM MgCl2, 0.1 mM CaCl2, 1 mM EGTA, 1 mM DTT, pH 7.4.
Assay [2] deals with epidermal growth factor receptor (EGFR) on A431 cells (human (endogenous in A431)) (UniProt P00533). The assay can be described thus: fluorescent-labeled ligand competitive binding on cells (plate reader); A431 cells fixed with 0.5% paraformaldehyde in 48-well plates; 25 nM Alexa-647-labeled MNT1 and different concentrations of MNTC or MNTN; DMEM with 1% BSA, 15 mM HEPES, pH 7.3, overnight at +4 °C.

Assay [3] has as its target Kelch-like ECH-associated protein 1 (Keap1), Cy3-labeled (UniProt Q14145). The assay can be described thus: MST; Monolith NT.115; Cy3-labeled Keap1 at constant concentration, MNT titrated; 25 mM sodium phosphate, 150 mM NaCl, pH 8.0.
Chain of UniProt Q14145 (Q14145 whole entry): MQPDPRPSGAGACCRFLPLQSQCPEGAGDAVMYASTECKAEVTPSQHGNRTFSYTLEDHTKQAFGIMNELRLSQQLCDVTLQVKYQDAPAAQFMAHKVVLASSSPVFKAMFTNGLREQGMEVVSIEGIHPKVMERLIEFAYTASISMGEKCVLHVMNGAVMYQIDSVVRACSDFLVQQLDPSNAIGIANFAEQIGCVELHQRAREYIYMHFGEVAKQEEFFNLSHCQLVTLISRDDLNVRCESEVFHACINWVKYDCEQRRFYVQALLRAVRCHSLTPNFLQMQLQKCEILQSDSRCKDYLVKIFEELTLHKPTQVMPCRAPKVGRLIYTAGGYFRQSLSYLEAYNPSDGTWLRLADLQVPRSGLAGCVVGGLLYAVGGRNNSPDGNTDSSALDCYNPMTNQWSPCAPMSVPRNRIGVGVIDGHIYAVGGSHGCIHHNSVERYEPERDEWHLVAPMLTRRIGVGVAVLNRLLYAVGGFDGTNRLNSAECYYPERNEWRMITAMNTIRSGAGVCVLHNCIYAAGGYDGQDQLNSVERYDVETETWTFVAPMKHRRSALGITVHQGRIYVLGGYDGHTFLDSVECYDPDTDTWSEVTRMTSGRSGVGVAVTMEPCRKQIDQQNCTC

Chain of UniProt Q14974 (Q14974 whole entry, looked up, one chain of several): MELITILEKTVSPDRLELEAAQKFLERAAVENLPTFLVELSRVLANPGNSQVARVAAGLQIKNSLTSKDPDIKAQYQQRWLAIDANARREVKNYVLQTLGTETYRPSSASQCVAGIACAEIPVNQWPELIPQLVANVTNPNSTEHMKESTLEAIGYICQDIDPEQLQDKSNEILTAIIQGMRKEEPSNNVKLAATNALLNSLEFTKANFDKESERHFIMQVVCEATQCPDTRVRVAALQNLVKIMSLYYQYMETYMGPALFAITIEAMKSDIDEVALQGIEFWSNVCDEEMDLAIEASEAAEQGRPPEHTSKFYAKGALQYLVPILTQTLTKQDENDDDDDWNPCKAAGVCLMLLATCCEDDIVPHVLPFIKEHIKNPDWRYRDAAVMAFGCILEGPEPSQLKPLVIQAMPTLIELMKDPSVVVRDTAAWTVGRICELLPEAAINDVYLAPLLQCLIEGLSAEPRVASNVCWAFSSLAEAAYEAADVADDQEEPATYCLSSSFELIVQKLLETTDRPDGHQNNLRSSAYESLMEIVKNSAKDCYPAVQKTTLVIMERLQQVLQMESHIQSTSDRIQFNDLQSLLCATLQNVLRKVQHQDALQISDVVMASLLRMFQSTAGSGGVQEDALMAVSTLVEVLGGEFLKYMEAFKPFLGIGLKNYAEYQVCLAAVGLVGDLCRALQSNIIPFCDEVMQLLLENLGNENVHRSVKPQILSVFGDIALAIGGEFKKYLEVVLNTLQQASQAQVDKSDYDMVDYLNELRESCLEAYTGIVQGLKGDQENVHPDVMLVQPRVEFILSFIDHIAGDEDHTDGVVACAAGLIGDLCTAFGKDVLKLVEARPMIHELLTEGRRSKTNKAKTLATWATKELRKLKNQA

In the case of “DTox-HMPN-NLS-EGF (modular nanotransporter with the N-terminal fragment of HMP) (from UniProt P24232 1-136)”, the Kd in assay [1] came out at 160 nM; in assay [2], 20 nM; in assay [3], 428 nM.

In assay [3], “DTox-HMP-NLS-EGF (original modular nanotransporter with full-size HMP carrier module) (from UniProt P24232 1-396)” gave a Kd of 205 nM.

Source of the values: paper PMC11360004.
